# According to patent US20050037413A1:
# Tests used:
# [1] = molecular target: glutathione (GSH) immobilized on dendron-modified controlled pore glass, sample E1 (Fmoc-(3)acid dendron); test: pull-down from lysate with E1 beads, SDS-PAGE densitometry, relative to GST on E1
# [2] = molecular target: glutathione (GSH) immobilized on dendron-modified controlled pore glass, sample E3 (Fmoc-(9)acid dendron); test: pull-down from lysate with E3 beads, SDS-PAGE densitometry, relative to GST on E3
# [3] = molecular target: glutathione Sepharose-4B; test: pull-down from lysate with glutathione Sepharose-4B, SDS-PAGE densitometry, relative to GST on Sepharose-4B
# [4] = molecular target: glutathione (GSH) immobilized on dendron-modified controlled pore glass, sample E1 (Fmoc-(3)acid dendron); test: GST captured on beads, sample weight adjusted to the same number of GSH, SDS-PAGE densitometry
# [5] = molecular target: glutathione (GSH) immobilized on dendron-modified controlled pore glass, sample E3 (Fmoc-(9)acid dendron); test: as above
relative binding capacity (GST on the same matrix set at 100%) [1] [%],relative binding capacity (GST on the same matrix set at 100%) [2] [%],"binding efficiency (relative, GST on the same matrix set at 100%) [3] [%]",Percentage of ligand utilization (%) [4] [%],Percentage of ligand utilization (%) [5] [%],Substance
22,23,17,,,GST-Munc-18 fragment (98 kDa) (from UniProt P08515 1-218)
92,85,104,,,"GST-PX^p47 (41 kDa), GST fused to the PX domain of p47^phox (from UniProt P08515 1-218)"
,,,29,31,glutathione S-transferase (GST) (28 kDa) (from UniProt P08515 1-218) (enzyme)
